According to patent US20100203559A1:

Tests used:
[1] = molecular target: SNAP-25134-206 peptide (human); assay: SPR (BIAcore 3000), peptide amine-coupled to CM5, antibody as analyte, 1:1 fit
[2] = molecular target: SNAP-25134-197 peptide (human); assay: as above
[3] = molecular target: GAPDH (SiMa cell lysate) (human (SiMa cells)) (UniProt P04406); assay: ECL sandwich ELISA, SiMa lysate; capture G8795, detection 2275-PC-1; result of the pair
[4] = molecular target: GAPDH (SiMa cell lysate) (human (SiMa cells)) (UniProt P04406); assay: ECL sandwich ELISA, SiMa lysate; capture MAB374, detection G9545; result of the pair
[5] = molecular target: GAPDH (SiMa cell lysate) (human (SiMa cells)) (UniProt P04406); assay: ECL sandwich ELISA, SiMa lysate; capture MAB374, detection G8795; result of the pair
[6] = molecular target: GAPDH (SiMa cell lysate) (human (SiMa cells)) (UniProt P04406); assay: ECL sandwich ELISA, SiMa lysate; capture MAB374, detection 2275-PC-1; result of the pair
[7] = molecular target: syntaxin 1 (SiMa cell lysate) (human (SiMa cells)) (UniProt Q16623); assay: ECL sandwich ELISA, SiMa lysate; capture S0664, detection S1172-2; result of the pair
[8] = molecular target: syntaxin 1 (SiMa cell lysate) (human (SiMa cells)) (UniProt Q16623); assay: ECL sandwich ELISA, SiMa lysate; capture S0664, detection S1172-1; result of the pair
[9] = molecular target: syntaxin 2 (SiMa cell lysate) (human (SiMa cells)) (UniProt P32856); assay: ECL sandwich ELISA, SiMa lysate; capture MAB2936, detection S5687; result of the pair
[10] = molecular target: syntaxin 2 (SiMa cell lysate) (human (SiMa cells)) (UniProt P32856); assay: ECL sandwich ELISA, SiMa lysate; capture MAB2936, detection AB5596; result of the pair

| Substance | Kd [1] | koff [1] | Kd [2] | koff [2] | kon [2] | also measured |
| --- | --- | --- | --- | --- | --- | --- |
| MC-6050 α-SNAP-25 mouse monoclonal antibody (Research & Diagnostic Antibodies) | 19800 nM | 0.00607 s⁻¹ | 0.497 nM | 0.000882 s⁻¹ | 1.78e+06 M⁻¹ s⁻¹ | kon [1]: 306 M⁻¹ s⁻¹ |
| MC-6053 α-SNAP-25 mouse monoclonal antibody (Research & Diagnostic Antibodies) | 240 nM | 2.56e-05 s⁻¹ | 0.508 nM | 0.00118 s⁻¹ | 2.32e+06 M⁻¹ s⁻¹ | – |
| α-GAPDH mouse monoclonal antibody G8795 (Sigma) | – | – | – | – | – | Signal/Noise Ratio (lysate/buffer) [3]: 2.74 |
| α-GAPDH mouse monoclonal antibody MAB374 (Chemicon) | – | – | – | – | – | Signal/Noise Ratio (lysate/buffer) [4]: > 100; Signal/Noise Ratio (lysate/buffer) [5]: 0.89; Signal/Noise Ratio (lysate/buffer) [6]: 20 |
| α-Syntaxin 1A-HPC mouse monoclonal antibody S0664 (Sigma) | – | – | – | – | – | Signal/Noise Ratio (lysate/buffer) [7]: 1.21; Signal/Noise Ratio (lysate/buffer) [8]: 4.23 |
| α-human syntaxin 2 mouse monoclonal antibody MAB2936 (R & D Systems) | – | – | – | – | – | Signal/Noise Ratio (lysate/buffer) [9]: 1.07; Signal/Noise Ratio (lysate/buffer) [10]: 1.2 |
